B1: Prickle-like protein 1 (Homo sapiens), Q96MT3 (parent)
chain: MPLEMEPKMSKLAFGCQRSSTSDDDSGCALEEYAWVPPGLRPEQIQLYFACLPEEKVPYVNSPGEKHRIKQLLYQLPPHDNEVRYCQSLSEEEKKELQVFSAQRKKEALGRGTIKLLSRAVMHAVCEQCGLKINGGEVAVFASRAGPGVCWHPSCFVCFTCNELLVDLIYFYQDGKIHCGRHHAELLKPRCSACDEIIFADECTEAEGRHWHMKHFCCLECETVLGGQRYIMKDGRPFCCGCFESLYAEYCETCGEHIGVDHAQMTYDGQHWHATEACFSCAQCKASLLGCPFLPKQGQIYCSKTCSLGEDVHASDSSDSAFQSARSRDSRRSVRMGKSSRSADQCRQSLLLSPALNYKFPGLSGNADDTLSRKLDDLSLSRQGTSFASEEFWKGRVEQETPEDPEEWADHEDYMTQLLLKFGDKSLFQPQPNEMDIRASEHWISDNMVKSKTELKQNNQSLASKKYQSDMYWAQSQDGLGDSAYGSHPGPASSRRLQELELDHGASGYNHDETQWYEDSLECLSDLKPEQSVRDSMDSLALSNITGASVDGENKPRPSLYSLQNFEEMETEDCEKMSNMGTLNSSMLHRSAESLKSLSSELCPEKILPEEKPVHLPVLRRSKSQSRPQQVKFSDDVIDNGNYDIEIRQPPMSERTRRRVYNFEERGSRSHHHRRRRSRKSRSDNALNLVTERKYSPKDRLRLYTPDNYEKFIQNKSAREIQAYIQNADLYGQYAHATSDYGLQNPGMNRFLGLYGEDDDSWCSSSSSSSDSEEEGYFLGQPIPQPRPQRFAYYTDDLSSPPSALPTPQFGQRTTKSKKKKGHKGKNCIIS
partner: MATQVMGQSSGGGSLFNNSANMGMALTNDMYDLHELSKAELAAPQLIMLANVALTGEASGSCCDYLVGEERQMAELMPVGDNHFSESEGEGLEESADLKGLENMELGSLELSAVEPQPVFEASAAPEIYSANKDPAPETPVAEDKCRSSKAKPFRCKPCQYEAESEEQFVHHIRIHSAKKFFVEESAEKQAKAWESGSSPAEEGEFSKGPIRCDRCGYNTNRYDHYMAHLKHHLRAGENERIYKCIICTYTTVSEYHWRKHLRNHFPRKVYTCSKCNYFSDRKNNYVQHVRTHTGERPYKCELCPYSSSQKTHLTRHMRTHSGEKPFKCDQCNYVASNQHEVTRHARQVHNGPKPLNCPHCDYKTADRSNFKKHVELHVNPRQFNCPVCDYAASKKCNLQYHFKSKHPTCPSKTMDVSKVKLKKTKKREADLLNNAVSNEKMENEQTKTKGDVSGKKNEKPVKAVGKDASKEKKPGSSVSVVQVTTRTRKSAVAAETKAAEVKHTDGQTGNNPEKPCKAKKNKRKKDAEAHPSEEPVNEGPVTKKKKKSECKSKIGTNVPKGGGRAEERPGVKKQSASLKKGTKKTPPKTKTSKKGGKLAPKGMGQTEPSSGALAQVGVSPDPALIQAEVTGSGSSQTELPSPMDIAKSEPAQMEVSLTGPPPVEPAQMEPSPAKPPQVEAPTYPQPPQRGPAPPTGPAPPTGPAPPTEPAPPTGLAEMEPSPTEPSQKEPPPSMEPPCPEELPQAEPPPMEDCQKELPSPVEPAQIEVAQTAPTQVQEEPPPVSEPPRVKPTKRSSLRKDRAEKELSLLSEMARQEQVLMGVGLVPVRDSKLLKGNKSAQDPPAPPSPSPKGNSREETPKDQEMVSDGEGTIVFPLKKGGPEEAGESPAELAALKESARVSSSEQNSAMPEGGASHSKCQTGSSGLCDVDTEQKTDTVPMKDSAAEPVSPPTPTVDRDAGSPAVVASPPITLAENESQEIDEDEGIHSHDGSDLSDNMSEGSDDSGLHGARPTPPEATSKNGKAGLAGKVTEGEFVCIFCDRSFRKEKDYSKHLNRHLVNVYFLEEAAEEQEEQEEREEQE

Variants of: B1
Conditions: with rest_mouse Rest

| Variant | effect of a mutation on the interaction |
| --- | --- |
| R104Q | decreasing interaction |

Reference: IntAct's records for PubMed 18976727
